Results on 46 substances are retold here after patent publication US10239925B2, “Peptides and combination of peptides for use in immunotherapy against ovarian cancer and other cancers” (IMMATICS BIOTECHNOLOGIES GMBH, priority 2015, dated 2019).

The assay has as its target HLA-A*02:01 (Homo sapiens, UniProt P04439, D140Y/D185E/D98H/E176V/E277Q/G131W/G231S/I119V/I121R/I166T/I218V/L300P/L318F/N151K/N90K/P208A/P217A/Q86G/Q94H/R138H/R169H/T345S). As to the kind of experiment: MHC binding assay (UV-ligand exchange, anti-β2m ELISA, peptide exchange yield). To be noted: binding to HLA-A*02:01. In short, it runs like this: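 Peptide-MHC complexes formed by UV-ligand exchange, cleaving a UV-sensitive placeholder peptide in favour of the test peptide. Exchange yield measured by ELISA: monomers diluted 100-fold onto streptavidin-coated plates, 1 h 37 °C, detected with 2 ug/ml HRP anti-β2m and TMB, absorbance at 450 nm.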
As to “281 (ILRESTEEL; listed as Homo sapiens) [compound 281]”, the “Peptide exchange (MHC class I binding score, peptide exchange yield)” value (shortened to “Peptide exchange”) was ““+++” (>50 = +++)”. For the substance “267 (ALQDFLLSV; listed as Homo sapiens) [compound 267]”, the “Peptide exchange” value is given as ““+++” (>50 = +++)”. In the case of “600 (ALAAPDIVPAL; listed as Homo sapiens) [compound 600]”, the “Peptide exchange” value is given as ““+++” (>50 = +++)”. Consider “455 (SLLKEPQKVQL; listed as Homo sapiens) [compound 455]”, for which the “Peptide exchange” value is reported as ““++” (>20% = ++)”.

Consider “354 (LILEGVDTV; listed as Homo sapiens) [compound 354]”, for which the “Peptide exchange” value is given as ““++” (>20% = ++)”.

With “396 (ALLPDLPAL; listed as Homo sapiens) [compound 396]”, the “Peptide exchange” value is ““+++” (>50 = +++)”.

With “485 (NVPDSFNEV; listed as Homo sapiens) [compound 485]”, the “Peptide exchange” value is on record as ““+++” (>50 = +++)”. In the case of “254 (TLLAFIMEL; listed as Homo sapiens) [compound 254]”, the “Peptide exchange” value is recorded as ““+++” (>50 = +++)”. In the case of “565 (ALQETPTSV; listed as Homo sapiens) [compound 565]”, the “Peptide exchange” value is listed as ““++” (>20% = ++)”.

Consider “341 (SQIALNEKLVNL; listed as Homo sapiens) [compound 341]”, for which the “Peptide exchange” value is recorded as ““+++” (>50 = +++)”. As for “148 (ALNPEIVSV; listed as Homo sapiens) [compound 148]”, the “Peptide exchange” value is ““++” (>20% = ++)”. For the substance “164 (ALLPQPKNLTV; listed as Homo sapiens) [compound 164]”, the “Peptide exchange” value is ““+++” (>50 = +++)”. To “274 (SLLFSLFEA; listed as Homo sapiens) [compound 274]” belongs ““++” (>20% = ++)”; to “168 (KILDADIQL; listed as Homo sapiens) [compound 168]”, ““++++” (>75% = ++++)”; to “561 (YLQLTQSEL; listed as Homo sapiens) [compound 561]”, ““+++” (>50 = +++)”. To “245 (SMIDDLLGV; listed as Homo sapiens) [compound 245]” belongs ““+++” (>50 = +++)”; to “306 (ALVNVQIPL; listed as Homo sapiens) [compound 306]”, ““+++” (>50 = +++)”. Then “151 (KILQQLVTL; listed as Homo sapiens) [compound 151]”, with ““+++” (>50 = +++)”; and “356 (KLLGKLPEL; listed as Homo sapiens) [compound 356]”, with ““+++” (>50 = +++)”. Take “258 (ELAERVPAI; listed as Homo sapiens) [compound 258]”: the “Peptide exchange” value is on record as ““++” (>20% = ++)”. To “132 (LLVEQPPLAGV; listed as Homo sapiens) [compound 132]” belongs ““+++” (>50 = +++)”; to “569 (KLVDRTWTL; listed as Homo sapiens) [compound 569]”, ““+++” (>50 = +++)”; to “412 (YLDDLNEGVYI; listed as Homo sapiens) [compound 412]”, ““++” (>20% = ++)”. Then “39 (SVAPNLPAV; listed as Homo sapiens) [compound 39]”, with ““+++” (>50 = +++)”; and “371 (FLQAHLHTA; listed as Homo sapiens) [compound 371]”, with ““++++” (>75% = ++++)”. Consider “142 (FLFATPVFI; listed as Homo sapiens) [compound 142]”, for which the “Peptide exchange” value was ““+++” (>50 = +++)”. Consider “121 (GVVDPRAISVL; listed as Homo sapiens) [compound 121]”, for which the “Peptide exchange” value is reported as ““++” (>20% = ++)”. For the substance “330 (QLALKVEGV; listed as Homo sapiens) [compound 330]”, the “Peptide exchange” value is recorded as ““+++” (>50 = +++)”. Take “324 (FLYDEIEAEV; listed as Homo sapiens) [compound 324]”: the “Peptide exchange” value is recorded as ““+++” (>50 = +++)”.

As for “299 (YLLETSGNL; listed as Homo sapiens) [compound 299]”, the “Peptide exchange” value is listed as ““+++” (>50 = +++)”. On to “194 (ALPLFVITV; listed as Homo sapiens) [compound 194]”, for which the “Peptide exchange” value is given as ““+++” (>50 = +++)”.

In the case of “288 (NLINEINGV; listed as Homo sapiens) [compound 288]”, the “Peptide exchange” value was ““+++” (>50 = +++)”. As to “397 (YLFGERLLEC; listed as Homo sapiens) [compound 397]”, the “Peptide exchange” value is recorded as ““+++” (>50 = +++)”.

Consider “130 (FLWNGEDSALL; listed as Homo sapiens) [compound 130]”, for which the “Peptide exchange” value was ““+++” (>50 = +++)”. As for “276 (ALFTFSPLTV; listed as Homo sapiens) [compound 276]”, the “Peptide exchange” value was ““+++” (>50 = +++)”. For “4 (GIMEHITKI; listed as Homo sapiens) [compound 4]”, the “Peptide exchange” value is recorded as ““++++” (>75% = ++++)”. Turning to “87 (ALPEAPAPLLPHIT; listed as Homo sapiens) [compound 87]”, the “Peptide exchange” value is ““++” (>20% = ++)”. Consider “278 (QLLDVVLTI; listed as Homo sapiens) [compound 278]”, for which the “Peptide exchange” value was ““++” (>20% = ++)”. Then “320 (KMFEFVEPLL; listed as Homo sapiens) [compound 320]”, with ““++++” (>75% = ++++)”; and “193 (QLLDADGFLNV; listed as Homo sapiens) [compound 193]”, with ““+++” (>50 = +++)”; and “253 (GLDAATATV; listed as Homo sapiens) [compound 253]”, with ““++” (>20% = ++)”. Regarding “228 (AMQEYIAVV; listed as Homo sapiens) [compound 228]”, the “Peptide exchange” value was ““++” (>20% = ++)”. To “462 (KLAKQPETV; listed as Homo sapiens) [compound 462]” belongs ““+++” (>50 = +++)”. Take “602 (YLLEQIKLIEV; listed as Homo sapiens) [compound 602]”: the “Peptide exchange” value is recorded as ““++++” (>75% = ++++)”. With “16 (VLFQGQASL; listed as Homo sapiens) [compound 16]”, the “Peptide exchange” value is ““+++” (>50 = +++)”. “54 (SLLEQGKEPWMV; listed as Homo sapiens) [compound 54]”: the “Peptide exchange” value is recorded as ““+++” (>50 = +++)”.
